Results reported in US20150344570A1 (published 2015).

B1: GpH7-A5/GpH7-B3 variant E269_18N/GpL16-k0 (He Ab) (antibody, human IgG1, kappa)
heavy 1: not shown
heavy 2: not shown
light: DIVMTQSPLSLPVTPGEPASISCQASESLVHSNRNTYLHWYLQKPGQSPQLLIYKVSNRFSGVPDRFSGSGSGTDFTLKISRVEAEDVGVYYCSQNTHVPPTFGQGTKVEIERTVAAPSVFIFPPSDEQLKSGTASVVCLLNNFYPREAKVQWKVDNALQSGNSQESVTEQDSKDSTYSLSSTLTLSKADYEKHKVYACEVTHQGLSSPVTKSFNRGEC
notes: He Ab: mutation in one H chain only
B2: GpH7-A5/GpH7-B3 variant Q295_05P/GpL16-k0 (He Ab) (antibody, human IgG1, kappa)
heavy 1: not shown
heavy 2: not shown
light: B1 light
notes: as for B1
B3: GpH7-A5/GpH7-B3 variant P271_16H/GpL16-k0 (He Ab) (antibody, human IgG1, kappa)
heavy 1: not shown
heavy 2: not shown
light: B1 light
notes: as for B1
B4: GpH7-A5/GpH7-B3 variant H268_11K/GpL16-k0 (He Ab) (antibody, human IgG1, kappa)
heavy 1: not shown
heavy 2: not shown
light: B1 light
notes: as for B1
B5: GpH7-A5/GpH7-B3 variant H268_14T/GpL16-k0 (He Ab) (antibody, human IgG1, kappa)
heavy 1: not shown
heavy 2: not shown
light: B1 light
notes: as for B1
B6: GpH7-A5/GpH7-B3 variant P271_07I/GpL16-k0 (He Ab) (antibody, human IgG1, kappa)
heavy 1: not shown
heavy 2: not shown
light: B1 light
notes: as for B1
B7: GpH7-A5/GpH7-B3 variant V266_19Q/GpL16-k0 (He Ab) (antibody, human IgG1, kappa)
heavy 1: not shown
heavy 2: not shown
light: B1 light
notes: as for B1
B8: GpH7-A5/GpH7-B3 variant E269_19Q/GpL16-k0 (He Ab) (antibody, human IgG1, kappa)
heavy 1: not shown
heavy 2: not shown
light: B1 light
notes: as for B1
B9: GpH7-A5/GpH7-B3 variant H268_04F/GpL16-k0 (He Ab) (antibody, human IgG1, kappa)
heavy 1: not shown
heavy 2: not shown
light: B1 light
notes: as for B1
B10: GpH7-A5/GpH7-B3 variant P271_14T/GpL16-k0 (He Ab) (antibody, human IgG1, kappa)
heavy 1: not shown
heavy 2: not shown
light: B1 light
notes: as for B1
B11: GpH7-A5/GpH7-B3 variant Q295_04F/GpL16-k0 (He Ab) (antibody, human IgG1, kappa)
heavy 1: not shown
heavy 2: not shown
light: B1 light
notes: as for B1
B12: GpH7-A5/GpH7-B3 variant P271_06M/GpL16-k0 (He Ab) (antibody, human IgG1, kappa)
heavy 1: not shown
heavy 2: not shown
light: B1 light
notes: as for B1
B13: GpH7-A5/GpH7-B3 variant H268_06M/GpL16-k0 (He Ab) (antibody, human IgG1, kappa)
heavy 1: not shown
heavy 2: not shown
light: B1 light
notes: as for B1
B14: GpH7-A5/GpH7-B3 variant P271_12R/GpL16-k0 (He Ab) (antibody, human IgG1, kappa)
heavy 1: not shown
heavy 2: not shown
light: B1 light
notes: as for B1
B15: GpH7-A5/GpH7-B3 variant H268_08L/GpL16-k0 (He Ab) (antibody, human IgG1, kappa)
heavy 1: not shown
heavy 2: not shown
light: B1 light
notes: as for B1
B16: GpH7-A5/GpH7-B3 variant Q295_03V/GpL16-k0 (He Ab) (antibody, human IgG1, kappa)
heavy 1: not shown
heavy 2: not shown
light: B1 light
notes: as for B1
B17: GpH7-A5/GpH7-B3 variant S239_14T/GpL16-k0 (He Ab) (antibody, human IgG1, kappa)
heavy 1: not shown
heavy 2: not shown
light: B1 light
notes: as for B1
B18: GpH7-A5/GpH7-B3 variant A330_12R/GpL16-k0 (antibody, human IgG1, kappa)
heavy 1: not shown
heavy 2: not shown
light: B1 light
notes: heterodimerized IgG1, mutation in one H chain only; also called He Ab
B19: GpH7-A5/GpH7-B3 variant Q295_06M/GpL16-k0 (He Ab) (antibody, human IgG1, kappa)
heavy 1: not shown
heavy 2: not shown
light: B1 light
notes: as for B1
B20: GpH7-A5/GpH7-B3 variant Q295_07I/GpL16-k0 (He Ab) (antibody, human IgG1, kappa)
heavy 1: not shown
heavy 2: not shown
light: B1 light
notes: as for B1

Key:
[1] = target: T1, FcγRIIb extracellular domain with C-terminal His tag (human, UniProt P31994 43-217); assay: SPR (Biacore), relative binding, HeCon Ab = 100
T1 construct: extracellular domain; Expressed in FreeStyle293 cells; analyte in the SPR assay; also called FcgRIIb; 2b
T1 sequence (looked up): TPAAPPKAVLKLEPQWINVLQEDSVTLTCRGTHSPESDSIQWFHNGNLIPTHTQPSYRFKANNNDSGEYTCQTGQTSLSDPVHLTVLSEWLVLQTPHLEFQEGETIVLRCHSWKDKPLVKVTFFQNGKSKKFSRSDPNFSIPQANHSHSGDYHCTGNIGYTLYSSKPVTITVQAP

[2] = target: T2, FcγRIa extracellular domain with C-terminal His tag (human, UniProt P12314 16-292); assay: SPR (Biacore), relative binding, HeCon Ab = 100
T2 construct: extracellular domain; Expressed in FreeStyle293 cells; analyte in the SPR assay; also called FcgRI; 1a

[3] = target: T3, FcγRIIb, extracellular domain with C-terminal His tag (human, UniProt P31994 43-217); assay: SPR (Biacore), antibody captured, FcγR analyte; vs GpH7-A5/GpH7-B3/GpL16-k0 = 100
T3 construct: extracellular domain; made in FreeStyle293 cells; analyte in the Biacore assay; also called 2b; FcgRIIb
T3 sequence (looked up): T1 sequence (looked up)
Description: (§1) The heterodimerized antibodies He Abs in which one of the H chains was introduced with an alteration were assayed for their binding activities to each activating FcγR and inhibitory FcγR according to the method described in Example 4. […] The activating FcγRs in FIGS. 26, 27, 28, and 29 are FcγRIa, FcγRIIa (R), FcγRIIa (H), and FcγRIIIa, respectively.
(§2) Analysis of interaction between objective antibody and the FcγR was carried out using Biacore T100 (GE Healthcare). HBS-EP+ (GE Healthcare) was used as the running buffer, and the measurement temperature was set to 25° C. Chips produced by immobilizing the antigen peptide by the amine coupling method to a Series S Sencor Chip CM5 (GE Healthcare), or alternatively, chips produced by allowing preliminarily biotinylated antigen peptides to interact with and immobilize onto a Series S Sensor Chip SA (certified) (GE Healthcare) were used. Antibodies of interest were captured onto an antigen peptide-immobilized chip, and allowed to interact to each FcγR diluted with running buffer. To regenerate and repeatedly use the chip, the antibodies captured on the chip were washed off by reacting 10 mM glycine-HCl, pH 1.5.

[4] = target: T4, FcγRIIa R (FcγRIIa allotype with Arg at position 131), extracellular domain with C-terminal His tag (human, UniProt P12318 34-217); assay: as above
T4 construct: extracellular domain; made in FreeStyle293 cells; analyte in the Biacore assay; also called FcγRIIa type R; 2aR
T4 sequence (looked up): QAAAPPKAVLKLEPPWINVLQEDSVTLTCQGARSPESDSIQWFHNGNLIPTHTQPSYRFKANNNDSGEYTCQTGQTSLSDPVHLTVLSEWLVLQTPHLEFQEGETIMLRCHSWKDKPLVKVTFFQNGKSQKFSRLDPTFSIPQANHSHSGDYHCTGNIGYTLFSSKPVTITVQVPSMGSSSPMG
Description: as §1, §2

T2 sequence (P12314 16-292): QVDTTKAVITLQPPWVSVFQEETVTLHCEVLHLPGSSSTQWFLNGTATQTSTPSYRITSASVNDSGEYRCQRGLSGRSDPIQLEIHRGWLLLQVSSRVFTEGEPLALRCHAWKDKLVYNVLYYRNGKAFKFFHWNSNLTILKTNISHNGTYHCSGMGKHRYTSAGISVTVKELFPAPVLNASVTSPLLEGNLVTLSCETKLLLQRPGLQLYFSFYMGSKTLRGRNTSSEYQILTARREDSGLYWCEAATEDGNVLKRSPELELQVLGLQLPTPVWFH

Binder	He/Con_2b [1]	He/Con_1a [2]	He/Con_2b [3]	He/Con_2aR [4]
B1	44.8 % of HeCon Ab (=100)	102 % of HeCon Ab (=100)	–	–
B2	67.5 % of HeCon Ab (=100)	103 % of HeCon Ab (=100)	–	–
B3	67.9 % of HeCon Ab (=100)	102 % of HeCon Ab (=100)	–	–
B4	83 % of HeCon Ab (=100)	106 % of HeCon Ab (=100)	–	–
B5	86 % of HeCon Ab (=100)	112 % of HeCon Ab (=100)	–	–
B6	76.8 % of HeCon Ab (=100)	102 % of HeCon Ab (=100)	–	–
B7	89.2 % of HeCon Ab (=100)	100 % of HeCon Ab (=100)	–	–
B8	44.3 % of HeCon Ab (=100)	105 % of HeCon Ab (=100)	–	–
B9	89.6 % of HeCon Ab (=100)	106 % of HeCon Ab (=100)	–	–
B10	95.4 % of HeCon Ab (=100)	102 % of HeCon Ab (=100)	–	–
B11	64.7 % of HeCon Ab (=100)	102 % of HeCon Ab (=100)	–	–
B12	77.5 % of HeCon Ab (=100)	102 % of HeCon Ab (=100)	–	–
B13	65.7 % of HeCon Ab (=100)	105 % of HeCon Ab (=100)	–	–
B14	86.5 % of HeCon Ab (=100)	102 % of HeCon Ab (=100)	–	–
B15	67.8 % of HeCon Ab (=100)	107 % of HeCon Ab (=100)	–	–
B16	75.7 % of HeCon Ab (=100)	104 % of HeCon Ab (=100)	–	–
B17	97.3 % of HeCon Ab (=100)	101 % of HeCon Ab (=100)	–	–
B18	–	–	84.8 relative (HeCon Ab = 100)	104 relative (HeCon Ab = 100)
B19	90.4 % of HeCon Ab (=100)	104 % of HeCon Ab (=100)	–	–
B20	84.3 % of HeCon Ab (=100)	103 % of HeCon Ab (=100)	–	–
